Tests used:
[1] = target: death receptor (DR) on the plasma membrane of MDA-MB-231 cells; experiment: fluorescence of cell-associated r-TRAIL on MDA-MB-231 cells, 4 C (membrane only) against 37 C (membrane plus internalised), r-TRAIL-Gelipo 0.2 ug/mL after HAase treatment
[2] = target: death receptor (DR) on the plasma membrane of MDA-MB-231 cells; experiment: cell-based or functional assay

Substance | percent of r-TRAIL bound onto the membrane [1] [%] | apoptosis ratio, Annexin V-FITC/PI flow cytometry, MDA-MB-231 cells, 12 h, free TRAIL 2 ng/mL [2] [%] | apoptosis ratio, Annexin V-FITC/PI flow cytometry, MDA-MB-231 cells, 12 h, free TRAIL 20 ng/mL [2] [%] | viability, Annexin V-FITC/PI flow cytometry, MDA-MB-231 cells, 12 h, free TRAIL 20 ng/mL [2] [%]
rhodamine-labeled TRAIL (His-ILZ-TRAIL, residues 114-281, labelled with rhodamine NHS ester) (from UniProt P50591 114-281) (ligand) | 80 |  |  | 
His-ILZ-TRAIL (residues 114-281) (from UniProt P50591 114-281) (ligand) |  | 36.5 | 51.7 | 32.3
